From US20030211537A1 (ARCH DEVELOPMENT, published 2003) come the findings set out here.

Starred links: 1 amine or outer side, 2 acyl side, 3 side chain; linkers in the order of their positions; H or OH if unused. Non-standard residues stand in square brackets, D forms with d. No end group written: not given here. Tyr(125I) = 125I-labelled Tyr, O=C([C@H](Cc1ccc(O[*:3])c([125I])c1)N[*:1])[*:2]

In one assay the target is T1, rat µ opioid receptor (rat, UniProt P33535 1-398).
T1 construct: whole, on cells; Assayed in membranes of transfected COS-7 cells; also called cloned µ receptor; rat µ receptor
Put plainly: competition vs [3H]DAMGO, COS-7 membranes.

The target in assay [1] is T2, mouse delta opioid receptor (mORD1) (mouse, UniProt P32300 1-372).
T2 construct: Assayed in membranes of transfected COS-1, CHO-DG44 or COS-7 cells; also called msl-2; δ receptor
Put plainly: competition vs [3H]naltrindole, CHO-DG44 membranes.
Method: (§1) Receptor binding assays were performed using membranes from either PC12 cells stably expressing the cloned mouse K receptor, CHO-DG44 cells stably expressing the mouse 8 receptor, or COS-7 cells transiently expressing the rat μ receptor 48-72 hours after transfection as previously described (4,10). For radioligand binding assays, cells were harvested in 50 mM Tris-HCl (pH 7.8) containing 1 mM ethylene glycol bis(β-aminoethyl ether)-N,N′-tetraacctic acid, 5 mM MgCl₂, 10 μg/ml leupeptin, 10 μg/ml pepstatin 200 μg/ml bacitracin and 0.5 μg/ml aprotinin (buffer 1) and centrifuged at 24,000 K g for 7 min at 4° C. The pellet was homogenized in buffer 1 using a Polytron (Brinkmann, setting 2.5 30 sec). The Homogenate was then centrifuged at 48,000 κ g for 20 min at 4° C. The pellet was homogenized in buffer 1 and this membrane preparation was used for the radioligand binding studies. […] The binding reaction was terminated by the addition of ice-cold 50 mM Tris-HCl buffer (pH 7.8) and rapid filtration over Whatman GF/B glass fiber filters which were pretreated with 0.5% polyethyleneimine/0.1% BSA for at least 1 hour. The filters were then washed with 12 mL of ice-cold Tris-HCl buffer and the bound radioactivity counted in a scintillation counter. Data from radioligand binding studies were used to generate inhibition curves.

The target of assay [2] is cloned human µ opioid receptor (human, UniProt P35372 1-400). The experiment in a line: competition vs [3H]DAMGO, COS-7 membranes.
Method: For radioligand binding assays, cells were harvested in 50 mM Tris-HCl (pH 7.8) containing 1 mM ethylene glycol bis(b-aminoethyl ether)-N,N′-tetraacetic acid, 5 mM MgCl₂, 10 mg/ml leupeptin, 10 mg/ml pepstatin, 200 mg/ml bacitracin and 0.5 mg/ml aprotinin (buffer 1) and centrifuged at 24,000×g for 7 min at 4° C. The pellet was homogenized in buffer 1 using a Polytron (Brinkmann, setting 2.5, 30 sec). The homogenate was then centrifuged at 48,000×g for 20 min at 4° C. The pellet was homogenized in buffer 1 and this membrane preparation was used for the radioligand binding studies. […] The binding reaction was terminated by the addition of ice-cold 50 mM Tris-HCl buffer (pH 7.8) and rapid filtration over Whatman GF/B glass fiber filters which were pretreated with 0.5% polyethyleneimine/0.1% BSA for at least 1 hour. The filters were then washed with 12 mL of ice-cold Tris-HCl buffer and the bound radioactivity counted in a scintillation counter. Data from radioligand binding 10 studies were used to generate inhibition curves.
Assay [3] concerns the target T3, κ1-78/δ70-372 chimeric opioid receptor (mouse).
T3 construct: Expressed in COS-7 cells, membranes assayed
T3 chain: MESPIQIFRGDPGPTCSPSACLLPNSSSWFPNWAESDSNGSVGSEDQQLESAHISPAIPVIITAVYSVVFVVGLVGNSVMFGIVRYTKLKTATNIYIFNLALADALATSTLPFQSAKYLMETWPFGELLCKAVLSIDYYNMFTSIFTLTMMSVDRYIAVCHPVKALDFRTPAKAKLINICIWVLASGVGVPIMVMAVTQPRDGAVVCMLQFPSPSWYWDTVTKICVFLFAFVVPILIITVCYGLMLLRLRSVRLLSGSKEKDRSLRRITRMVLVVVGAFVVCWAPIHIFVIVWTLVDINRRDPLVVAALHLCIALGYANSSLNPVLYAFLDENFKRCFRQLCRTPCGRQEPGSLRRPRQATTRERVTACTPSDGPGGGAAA
The experiment in a line: competition vs [3H]naloxone, COS-7 membranes.
Method: The homogenate is centrifuged at 48,000×g for 20 min at 4° C. and the pellet resuspended in Buffer 1 and used in the radioligand binding assay. […] All radioligands were obtained from NEN/Dupont (Boston, Mass.). […] The binding reaction is terminated by the addition of ice-cold 50 mM Tris-HCL (pH 7.8) and rapid filtration over Whatman GF/B glass fiber filters that were pretreated with 0.5% polyethleneimine and 0.1% bovine serum albumin. The filters were washed with 12 ml of ice-cold buffer and soaked overnight in scintillation fluid. The bound radioactivity was determined using a scintillation counter.

In assay [4] the target is T4, mouse kappa opioid receptor (mORK1) (mouse, UniProt P33534 1-380).
T4 construct: Assayed in membranes of transfected COS-1, PC12 or COS-7 cells; also called msl-1; κ receptor
The experiment in a line: competition vs [3H]U-69,593, PC12 membranes.
Method: as §1

Assay [5] has as its target T4, mouse kappa opioid receptor (mORK1). Put plainly: radioligand binding, COS-1 membranes.
The target of assay [6] is T2, mouse delta opioid receptor (mORD1). Put plainly: radioligand binding, COS-1 membranes.

T1 sequence (P33535 whole entry): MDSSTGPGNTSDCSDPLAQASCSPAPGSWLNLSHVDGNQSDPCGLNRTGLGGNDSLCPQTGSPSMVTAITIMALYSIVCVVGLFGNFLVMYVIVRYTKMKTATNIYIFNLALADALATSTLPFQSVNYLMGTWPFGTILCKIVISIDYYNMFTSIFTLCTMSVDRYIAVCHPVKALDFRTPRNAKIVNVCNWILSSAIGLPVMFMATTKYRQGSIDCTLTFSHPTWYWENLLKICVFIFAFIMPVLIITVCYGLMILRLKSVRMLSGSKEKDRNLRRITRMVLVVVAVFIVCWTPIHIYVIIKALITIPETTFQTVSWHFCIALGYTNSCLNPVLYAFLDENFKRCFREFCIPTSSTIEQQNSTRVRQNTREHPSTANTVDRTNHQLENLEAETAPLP
cloned human µ opioid receptor, sequence (P35372 whole entry): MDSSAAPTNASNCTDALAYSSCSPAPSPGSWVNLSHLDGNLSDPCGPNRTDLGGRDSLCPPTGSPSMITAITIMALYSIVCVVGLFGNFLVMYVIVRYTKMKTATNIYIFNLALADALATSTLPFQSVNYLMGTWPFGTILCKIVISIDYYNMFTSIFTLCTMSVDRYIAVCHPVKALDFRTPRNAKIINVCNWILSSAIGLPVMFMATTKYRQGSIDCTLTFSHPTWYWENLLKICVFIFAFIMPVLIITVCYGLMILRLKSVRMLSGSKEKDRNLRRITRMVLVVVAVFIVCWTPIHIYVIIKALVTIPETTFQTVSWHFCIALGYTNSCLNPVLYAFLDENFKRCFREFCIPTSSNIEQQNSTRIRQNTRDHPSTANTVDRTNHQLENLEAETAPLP
Method for rat µ opioid receptor: as §1

B1: β-Endorphin (human) (peptide, UniProt P01189 237-267, looked up)
peptide: YGGFMTSEKSQTPLVTLFKNAIIKNAYKKGE
modifications: also: 125I-labelled where used as radioligand, site not given here
notes: domain: β-Endorphin; also called beta-endorphin
By Ki is commonly meant the equilibrium dissociation constant of an inhibitor or competing ligand from its target. Read a low Ki as a stronger hold on the target. Take B1: the Ki (with rat µ opioid receptor; in assay [1]) was 1 nM in each case.

B2: CTOP (D-Phe-Cys-Tyr-D-Trp-Orn-Thr-Pen-Thr-NH2) (peptide)
peptide: FCYWXTXT
modifications: D-Phe at 1, D-Trp at 4, Orn at 5 (printed Om), Pen at 7, C-terminal NH2; X in the letters stands for Orn 5 and Pen 7
For B2, in assay [2], the inhibition constant (Ki) is 3.9 nM.
The IC50 is the concentration needed to halve the response being measured. Read a high IC50 as lower potency. Turning to YGGFLRRIRPKLKWDNQ (peptide, UniProt P01213 207-223, looked up) [dynorphin (form not specified)], the IC50 in assay [3] turned out to be 40 nM.

B3: des-Tyr1-β-endorphin (peptide, UniProt P01189 238-267, looked up)
peptide: GGFMTSEKSQTPLVTLFKNAIIKNAYKKGE
notes: domain: des-Tyr1-β-endorphin; also called des-Tyrl-β-endorphin
For the molecule B3, the inhibitory constant (Ki) (in assay [4]; with rat µ opioid receptor; in assay [1]; in assay [2]) was over 1000 nM each time.
Consider AGCKNFFWKT[Tyr(125I)]TSC (peptide, UniProt P61278 103-116, looked up, ends and bridges not checked) [[125I-Tyr11] SRIF], for which the binding result in assay [5] and in assay [6] was “no binding” each time.
Consider YGGFM (peptide, UniProt P01210 100-104, looked up, domain: Met-enkephalin) [Met-enkephalin], for which the inhibition constant Ki in assay [4] is over 1000 nM.
